Measurements from PMC7013464.

Target: Gab2 608-620 (Homo sapiens), Q9UQC2
Experiment: flow

Kd	Binder
1.7 nM	SHP2 N-SH2, Q06124 (protein) WFHPNITGVEAENLLLTRGVDGSFLARPSKSNPGDFALSVRRNGAVTHIKIQNTGDYYDLYGGEKFATLAELVQYYMEHHGQLKEKNGDVIELKYPL
5.3 nM	SHP2 N-SH2, Q06124 (protein) WFHPNITGVEAENLLLTRGVDGSFLARPSKSNPGDFSLSVRRNGAVTHIKIQNTGDYYDLYGGEKFATLAELVQYYMEHHGQLKEKNGDVIELKYPL
